Data: patent US20260193293A1, “PEPTIDES CAPABLE OF INHIBITING PROTEIN-PROTEIN INTERACTIONS AT GABAB1A SUBUNIT AND USES THEREOF” (UNIVERSITY OF COPENHAGEN, priority 2022, published 2026)
Non-standard residues stand in square brackets, D forms with d. NMeW = CN[C@@H](Cc1c[nH]c2ccccc12)C(=O)O; NMeF = CN[C@@H](Cc1ccccc1)C(=O)O; NMeI = CC[C@H](C)[C@H](NC)C(=O)O; NMeT = CN[C@H](C(=O)O)[C@@H](C)O; NMeE = CN[C@@H](CCC(=O)O)C(=O)O

B1: ETEFIA(N-Me-W)GPTGDED (peptide)
peptide: Ac-ETEFIA[NMeW]GPTGDED-NH2
SMILES: CC[C@H](C)[C@H](NC(=O)[C@H](Cc1ccccc1)NC(=O)[C@H](CCC(=O)O)NC(=O)[C@@H](NC(=O)[C@H](CCC(=O)O)NC(C)=O)[C@@H](C)O)C(=O)N[C@@H](C)C(=O)N(C)[C@@H](Cc1c[nH]c2ccccc12)C(=O)NCC(=O)N1CCC[C@H]1C(=O)N[C@H](C(=O)NCC(=O)N[C@@H](CC(=O)O)C(=O)N[C@@H](CCC(=O)O)C(=O)N[C@@H](CC(=O)O)C(N)=O)[C@@H](C)O
B2: ETE(N-Me-F)… (peptide)
peptide: Ac-ETE[NMeF]IAWGPTGDED-NH2
SMILES: CC[C@H](C)[C@H](NC(=O)[C@H](Cc1ccccc1)N(C)C(=O)[C@H](CCC(=O)O)NC(=O)[C@@H](NC(=O)[C@H](CCC(=O)O)NC(C)=O)[C@@H](C)O)C(=O)N[C@@H](C)C(=O)N[C@@H](Cc1c[nH]c2ccccc12)C(=O)NCC(=O)N1CCC[C@H]1C(=O)N[C@H](C(=O)NCC(=O)N[C@@H](CC(=O)O)C(=O)N[C@@H](CCC(=O)O)C(=O)N[C@@H](CC(=O)O)C(N)=O)[C@@H](C)O
B3: (N-Me-E)… (peptide)
peptide: Ac-[NMeE]TEFIAWGPTGDED-NH2
SMILES: CC[C@H](C)[C@H](NC(=O)[C@H](Cc1ccccc1)NC(=O)[C@H](CCC(=O)O)NC(=O)[C@@H](NC(=O)[C@H](CCC(=O)O)N(C)C(C)=O)[C@@H](C)O)C(=O)N[C@@H](C)C(=O)N[C@@H](Cc1c[nH]c2ccccc12)C(=O)NCC(=O)N1CCC[C@H]1C(=O)N[C@H](C(=O)NCC(=O)N[C@@H](CC(=O)O)C(=O)N[C@@H](CCC(=O)O)C(=O)N[C@@H](CC(=O)O)C(N)=O)[C@@H](C)O
B4: ETEF(N-Me-I)… (peptide)
peptide: Ac-ETEF[NMeI]AWGPTGDED-NH2
SMILES: CC[C@H](C)[C@@H](C(=O)N[C@@H](C)C(=O)N[C@@H](Cc1c[nH]c2ccccc12)C(=O)NCC(=O)N1CCC[C@H]1C(=O)N[C@H](C(=O)NCC(=O)N[C@@H](CC(=O)O)C(=O)N[C@@H](CCC(=O)O)C(=O)N[C@@H](CC(=O)O)C(N)=O)[C@@H](C)O)N(C)C(=O)[C@H](Cc1ccccc1)NC(=O)[C@H](CCC(=O)O)NC(=O)[C@@H](NC(=O)[C@H](CCC(=O)O)NC(C)=O)[C@@H](C)O
B5: ET(N-Me-E)… (peptide)
peptide: Ac-ET[NMeE]FIAWGPTGDED-NH2
SMILES: CC[C@H](C)[C@H](NC(=O)[C@H](Cc1ccccc1)NC(=O)[C@H](CCC(=O)O)N(C)C(=O)[C@@H](NC(=O)[C@H](CCC(=O)O)NC(C)=O)[C@@H](C)O)C(=O)N[C@@H](C)C(=O)N[C@@H](Cc1c[nH]c2ccccc12)C(=O)NCC(=O)N1CCC[C@H]1C(=O)N[C@H](C(=O)NCC(=O)N[C@@H](CC(=O)O)C(=O)N[C@@H](CCC(=O)O)C(=O)N[C@@H](CC(=O)O)C(N)=O)[C@@H](C)O
B6: E(N-Me-T)… (peptide)
peptide: Ac-E[NMeT]EFIAWGPTGDED-NH2
SMILES: CC[C@H](C)[C@H](NC(=O)[C@H](Cc1ccccc1)NC(=O)[C@H](CCC(=O)O)NC(=O)[C@H]([C@@H](C)O)N(C)C(=O)[C@H](CCC(=O)O)NC(C)=O)C(=O)N[C@@H](C)C(=O)N[C@@H](Cc1c[nH]c2ccccc12)C(=O)NCC(=O)N1CCC[C@H]1C(=O)N[C@H](C(=O)NCC(=O)N[C@@H](CC(=O)O)C(=O)N[C@@H](CCC(=O)O)C(=O)N[C@@H](CC(=O)O)C(N)=O)[C@@H](C)O

Each binder was assayed against Sushi domains (SD1/2) protein of the GABAB1a (GB1a) subunit, recombinant (assay: FP competition).
Sequence of Sushi domains (SD1/2) protein of the GABAB1a (GB1a) subunit, recombinant (Q9Z0U4 29-158): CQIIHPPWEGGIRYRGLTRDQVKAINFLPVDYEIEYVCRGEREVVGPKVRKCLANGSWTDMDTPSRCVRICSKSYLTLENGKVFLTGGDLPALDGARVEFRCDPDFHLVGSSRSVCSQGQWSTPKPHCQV

| Binder | Ki [nM] |
| --- | --- |
| B1 | 46 |
| B2 | 252 |
| B3 | 35 |
| B4 | 33 |
| B5 | 159 |
| Ac-ETEFIAWGPTGD[dE]D-NH2 […eD] | 44 |
| B6 | 37 |
| Ac-ETEFIAWGPTGDE[dD]-NH2 […d] | 39 |
